Data taken from paper PMC11960969, “Mdga2 deficiency leads to an aberrant activation of BDNF/TrkB signaling that underlies autism-relevant synaptic and behavioral changes in mice” (PLOS Biology, 2025).

B1: MDGA2-V930I: MDGA2 with ASD-associated missense mutation V930I, GFP-tagged (protein)
chain: PPTVRIVHSGLACNIEEERYSERVYTIREGETLELTCLVTGHPRPQIRWTKTAGSASDRFQDSSVFNETLRITNIQRHQGGRYYCKAENGLGSPAIKSIRVDVYYLDDPVVTVHQSIGEAKEQFYYERTVFLRCVANSNPPVRYSWRRGQEVLLQGSDKGVEIYEPFFTQGETKILKLKNLRPQDYANYSCIASVRNVCNIPDKMVSFRLSNKTASPSIKLLVDDPIVVNPGEAITLVCVTTGGEPAPSLTWVRSFGTLPEKTVLNGGTLTIPAITSDDAGTYSCIANNNVGNPAKKSTNIIVRALKKGRFWITPDPYHKDDNIQIGREVKISCQVEAVPSEELTFSWFKNGRPLRSSERMVITQTDPDVSPGTTNLDIIDLKFTDFGTYTCVASLKGGGISDISIDVNISSSTVPPNLTVPQEKSPLVTREGDTIELQCQVTGKPKPIILWSRADKEVAMPDGSMQMESYDGTLRIVNVSREMSGMYRCQTSQYNGFNVKPREALVQLIVQYPPAVEPAFLEIRQGQDRSVTMSCRVLRAYPIRVLTYEWRLGNKLLRTGQFDSQEYTEYAVKSLSNENYGVYNCSIINEAGAGRCSFLVTGKAYAPEFYYDTYNPVWQNRHRVYSYSLQWTQMNPDAVDRIVAYRLGIRQAGQQRWWEQEIKINGNIQKGELITYNLTELIKPEAYEVRLTPLTKFGEGDSTIRVIKYSAPVNPHLREFHCGFEDGNICLFTQDDTDNFDWTKQSTATRNTKYTPNTGPNADRSGSKEGFYMYIETSRPRLEGEKARLLSPVFSIAPKNPYGPTNTAYCFSFFYHMYGQHIGVLNVYLRLKGQTTIENPLWSSSGNKGQRWNEAHVNIYPITSFQLIFEGIRGPGIEGDIAIDDVSIAEGECAKQDLATKNSID
modifications: left off: GFP, end not stated, kept
notes: MDGA2 with ASD-associated missense mutation V930I, GFP-tagged
B2: brain-derived neurotrophic factor (protein)
chain: APMKEVNVHGQGNLAYPGVRTHGTLESVNGPRAGSRGLTTTSLADTFEHVIEELLDEDQKVRPNEENHKDADLYTSRVMLSSQVPLEPPLLFLLEEYKNYLDAANMSMRVRRHSDPARRGELSVCDSISEWVTAADKKTAVDMSGGTVTVLEKVPVSKGQLKQYFYETKCNPMGYTKEGCRGIDKRHWNSQCRTTQSYVRALTMDSKKRIGWRFIRIDTSCVCTLTIKRGR

Assays:
[1] = system: TrkB signaling (pTrkB, pAkt, pmTOR); assay: Immunoblotting of TrkB/Akt/mTOR phosphorylation in primary neurons transfected with MDGA2, ΔMAM or V930I; format: cell-based, mouse; details: Mdga2-/- neurons, n = 6, Fig 7F
Experimental: Fig 3 MDGA2 interacts with TrkB and suppresses TrkB activity. (A) Primary hippocampal neurons derived from Mdga2^ +/− (Het) mice and their wild-type (WT) littermates at DIV 7 were treated with different doses of BDNF for 30 min. Equal amounts of protein lysates were subjected to immunoprecipitation (IP) with an anti-TrkB antibody, followed by immunoblotting with an anti-phosphotyrosine (pTyr) antibody or the anti-TrkB antibody. The pTyr levels were quantified by densitometry, normalized to total TrkB levels, and then compared to those of WT controls. n = 3 per group. (B) WT mouse brain lysates were subjected to IP with an anti-MDGA2 antibody and a control IgG, and immunoblotted (IB) for the components indicated. mBDNF, mature BDNF; ImBDNF, immature BDNF. (C) Hippocampal neurons from WT mice at DIV 7 were immunostained with antibodies against MDGA2 (red) and TrkB (green), and then counter-stained with DAPI (blue). Images were acquired by a confocal microscope. Scale bar: 10 μm. (D) Surface plasmon resonance (SPR) analysis of the binding between recombinant MDGA2 protein and recombinant TrkB protein. TrkB was immobilized on a Biacore CM5 chip and tested for its binding with MDGA2 at the concentrations indicated. (E) Computer simulation of the binding mode of TrkB and MDGA2. The predicted binding domain of TrkB (the d5 domain) is highlighted by a red square and labeled in brown. The predicted binding domain of MDGA2 (the MAM domain) is highlighted by a red square and labeled in yellow. (F) HEK293T cells were co-transfected with TrkB-Flag and GFP-tagged full-length MDGA2 (MDGA2-GFP) or an MDGA2 deletion fragment lacking the entire MAM domain (ΔMAM-GFP). Cell lysates were subjected to IP with control IgG and antibodies against Flag or GFP, and immunoblotted for the components indicated. […] The scheme of MDGA2-ΔMAM is also shown. (G) HeLa cells were co-transfected with TrkB that is tagged with the N-terminal Venus fragment (TrkB-VN) and full-length MDGA2 or MDGA2-ΔMAM that are tagged with the C-terminal Venus fragment (MDGA2-VC or ΔMAM-VC) for 24 h. After immunostaining with antibodies against MDGA2/MDGA2-ΔMAM (pink) and TrkB (red), cells were observed by confocal microscopy. Venus signal (green) indicates the interaction between MDGA2 and TrkB. Schematic diagrams depicting the BiFC assay are also shown. Scale bars: 10 μm. (H, I) Equal amounts of protein lysates from primary neurons derived from Het, KO, and their WT littermate mice (H), and from WT primary neurons transfected with GFP control, MDGA2-GFP or ΔMAM-GFP (I) were subjected to IP with IgG and an anti-BDNF antibody, and then immunoblotted for the components indicated. Immunoprecipitated TrkB levels were quantified by densitometry, normalized to input levels, and compared to respective controls (set to one arbitrary units). n = 3 per group. (J) Neurons derived from KO mice were transfected with GFP control (Ctrl), MDGA2-GFP, or MDGA2-ΔMAM-GFP, and neurons derived from their WT littermates were transfected with GFP control (Ctrl). Equal amounts of protein lysates were subjected to immunoblotting for the proteins indicated. Levels of phosphorylated proteins were quantified by densitometry, normalized to respective total protein levels and compared to controls (set to one arbitrary units). n = 6 per group. Data represent mean ± SEM. P-values were determined by two-tailed unpaired Student t-test in (A) and one-way ANOVA with Tukey’s multiple comparisons test in (H, I, J). *p < 0.05, **p < 0.01, ***p < 0.001, ns: not significant. The data underlying this figure can be found in S1 Data, specifically in the sheet labeled “Figure 3”.
Fig 7 The autism spectrum disorder (ASD)-associated MDGA2 V930I mutation impairs the MDGA2-TrkB interaction and MDGA2’s inhibitory effect on the tyrosine kinase B (TrkB) signaling. (A) Schematic depiction of the WT human MDGA2 and its V930I mutation constructs that are tagged with GFP. […]

[2] = system: HeLa cells; assay: Cell surface biotinylation of MDGA2 or V930I in transfected HeLa cells; format: cell-based; details: n = 4, Fig 7D
Excerpt: (§1) Fig 7 The autism spectrum disorder (ASD)-associated MDGA2 V930I mutation impairs the MDGA2-TrkB interaction and MDGA2’s inhibitory effect on the tyrosine kinase B (TrkB) signaling. (A) Schematic depiction of the WT human MDGA2 and its V930I mutation constructs that are tagged with GFP. (B, C) HeLa cells (B) and mouse primary neurons (C) transfected with MDGA2 (green) or V930I (green) were immunostained with an antibody against the plasma membrane protein ATP1A1 (red) and then observed by confocal microscopy. Scale bars = 10 μm. (D) Cell surface expression of WT MDGA2 or V930I in transfected HeLa cells was determined by surface biotinylation assays. Biotinylated (cell surface) protein levels were quantified by densitometry and normalized to total protein levels for comparison (WT MDGA2 levels were set to one arbitrary unit). n = 4 experimental replicates. (E) Mouse primary neurons were transfected with MDGA2, V930I, or ΔMAM. […] Immunoprecipitated protein levels were quantified by densitometry, normalized to respective inputs, and compared to those transfected with MDGA2 (set to one arbitrary units). n = 4 experimental replicates. […] Levels of phosphorylated proteins were quantified by densitometry, normalized to respective total protein levels and compared to controls (set to one arbitrary units). n = 6 experimental replicates. […]

[3] = system: TrkB; assay: Co-IP of MDGA2, V930I or ΔMAM with TrkB in mouse primary neurons; format: binding; details: n = 4, Fig 7E
Excerpt: as §1

[4] = system: cell membrane localization in HeLa cells and mouse primary neurons; assay: Immunostaining of membrane localization of MDGA2, ΔMAM or V930I in transfected cells; format: cell-based; details: HeLa cells and mouse primary neurons, Fig 7B, 7C
Excerpt: as §1

[5] = system: TrkB; assay: BDNF-induced TrkB tyrosine phosphorylation in primary hippocampal neurons (IP anti-TrkB, immunoblot pTyr); format: cell-based, mouse; details: primary hippocampal neurons DIV 7, 30 min; Mdga2+/- and Mdga2-/- vs WT neurons; Fig 3A, S3A
Experimental: Fig 3 MDGA2 interacts with TrkB and suppresses TrkB activity. (A) Primary hippocampal neurons derived from Mdga2^ +/− (Het) mice and their wild-type (WT) littermates at DIV 7 were treated with different doses of BDNF for 30 min. Equal amounts of protein lysates were subjected to immunoprecipitation (IP) with an anti-TrkB antibody, followed by immunoblotting with an anti-phosphotyrosine (pTyr) antibody or the anti-TrkB antibody. The pTyr levels were quantified by densitometry, normalized to total TrkB levels, and then compared to those of WT controls. n = 3 per group. (B) WT mouse brain lysates were subjected to IP with an anti-MDGA2 antibody and a control IgG, and immunoblotted (IB) for the components indicated. mBDNF, mature BDNF; ImBDNF, immature BDNF. […] Immunoprecipitated TrkB levels were quantified by densitometry, normalized to input levels, and compared to respective controls (set to one arbitrary units). n = 3 per group. […] Levels of phosphorylated proteins were quantified by densitometry, normalized to respective total protein levels and compared to controls (set to one arbitrary units). n = 6 per group. […] P-values were determined by two-tailed unpaired Student t-test in (A) and one-way ANOVA with Tukey’s multiple comparisons test in (H, I, J). *p < 0.05, **p < 0.01, ***p < 0.001, ns: not significant. […]

[6] = system: ASD animal models; details: cited from earlier work

| Molecule | aberrant activation of TrkB/Akt signaling upon re-expression [1] | cell surface levels (biotinylation) [2] | interaction with TrkB (IP) vs WT MDGA2 [3] | cell surface distribution (immunostaining) [4] | Phosphorylation of TrkB induced by BDNF [5] | repetitive self-grooming behavior and anxiety-like behavior ([6]; overexpression of BDNF, neonatally isolated rats) | social deficits ([6]; valproic acid-exposed mice) |
| --- | --- | --- | --- | --- | --- | --- | --- |
| B1 | did not inhibit the aberrant activation of the TrkB/Akt signaling as WT MDGA2 did | significantly lower than those of WT MDGA2 | significantly decreased compared to that of WT MDGA2 | cell surface distribution was much less than that of WT MDGA2 | – | – | – |
| B2 | – | – | – | – | showed a dose-dependent manner and was much stronger in Mdga2^ +/− and Mdga2^−/− neurons than in WT neurons | rescued repetitive self-grooming behavior and anxiety-like behavior | attenuated social deficits in valproic acid-exposed mice |
